Source: patent US20250043001A1 (Xencor, published 2025)
Where a chain is given by its changes, count along the chain named.

How the values were obtained:
[1] = target: T1, CEACAM5 (UniProt P06731 35-685); assay: affinity at 25 C (Octet per FIG. 79 legend)
T1 construct: also called carcinoembryonic antigen-related cell adhesion molecule 5; CD66e
T1 sequence (looked up): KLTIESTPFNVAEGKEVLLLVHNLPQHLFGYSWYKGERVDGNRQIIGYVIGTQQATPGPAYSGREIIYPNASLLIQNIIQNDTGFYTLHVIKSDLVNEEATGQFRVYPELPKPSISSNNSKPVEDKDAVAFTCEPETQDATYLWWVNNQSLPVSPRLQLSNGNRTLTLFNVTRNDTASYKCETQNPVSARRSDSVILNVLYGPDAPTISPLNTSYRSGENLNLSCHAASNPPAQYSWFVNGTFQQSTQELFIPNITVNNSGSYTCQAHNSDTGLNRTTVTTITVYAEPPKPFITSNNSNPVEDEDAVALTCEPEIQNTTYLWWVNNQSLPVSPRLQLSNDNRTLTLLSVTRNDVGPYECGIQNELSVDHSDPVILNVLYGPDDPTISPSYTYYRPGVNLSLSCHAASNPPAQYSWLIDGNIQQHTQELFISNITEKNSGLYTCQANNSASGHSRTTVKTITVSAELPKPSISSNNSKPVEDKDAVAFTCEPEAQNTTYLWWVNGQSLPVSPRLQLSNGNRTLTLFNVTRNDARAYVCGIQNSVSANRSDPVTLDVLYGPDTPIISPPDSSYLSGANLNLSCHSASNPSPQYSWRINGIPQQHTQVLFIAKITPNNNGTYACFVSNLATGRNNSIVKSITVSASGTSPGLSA

[2] = target: T2, human CD28 (human, UniProt P10747 19-152); assay: CD28 affinity of the scFv arm as quoted in the text; method not given
T2 construct: also called Cluster of Differentiation 28; Tp44

[3] = target: T1, CEACAM5; assay: CEACAM5 affinity as quoted in the text; method not given
[4] = target: T3, STEAP1 (UniProt Q9UHE8 1-339, limits assumed); assay: flow cytometry, bivalent mAbs on C4-2B cells
T3 construct: whole, on cells; also called Six-Transmembrane Epithelial Antigen of the Prostate 1
Method: Optimized humanized STEAP-A variants were then engineered in order to improve their binding affinity to STEAP-1. In the first round, 82 variant VLs were engineered as L1.4-L1.85 and 151 variant VHs were engineered as H1.39-H1.189. Variants were produced as bivalent mAbs, the sequences for which are depicted in FIG. 30. The bivalent mAbs were then screened for binding to STEAP-1 on C4-2B cells. Cells were mixed with mAbs and incubated for 1 hour on ice, washed with PBS, stained with secondary antibody for 1 hour on ice, and washed again before analyzing binding utilizing flow cytometry.
In the second round, 34 variant VLs were engineered and designated as L1.86-L1.119 and 39 variant VHs were engineered and designated as H1.190-H1.228. Bivalent mAbs from the second round of affinity maturation were also screened for binding to STEAP-1 expressed on C4-2B cells. Flow cytometry analysis was used to determine relative maximum MFI values, AUC values, and approximate EC50 values for each test article, as summarized in FIG. 34. […] A final set of variable heavy domain substitutions were engineered and designated H1.229- H1.232. […] Sequences for each variant VH and VL are depicted in FIGS. 31 and 32, respectively.

[5] = target: T4, CEACAM8 (UniProt P31997 35-320); assay: binding affinity (Octet at 25 C per FIG. 80 legend)
T4 sequence (looked up): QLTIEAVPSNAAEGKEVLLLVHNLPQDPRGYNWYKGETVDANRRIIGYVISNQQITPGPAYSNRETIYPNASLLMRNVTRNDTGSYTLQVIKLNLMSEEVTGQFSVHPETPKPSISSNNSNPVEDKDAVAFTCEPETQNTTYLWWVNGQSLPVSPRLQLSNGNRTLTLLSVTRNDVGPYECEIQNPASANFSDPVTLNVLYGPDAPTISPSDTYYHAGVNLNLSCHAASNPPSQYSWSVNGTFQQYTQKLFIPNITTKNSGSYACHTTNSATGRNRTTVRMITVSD

[6] = target: T1, CEACAM5; assay: as above
[7] = target: T2, human CD28; assay: affinity; method not given
[8] = target: T2, human CD28; assay: CD28 affinity as quoted in the text; method not given

B1: CEA-A_H0L0 (antibody, V domains shown)
VH: EVKLVESGGGLVQPGGSLRLSCATSGFTFTDYYMNWVRQPPGKALEWLGFIGNKANGYTTEYSASVKGRFTISRDKSQSILYLQMNTLRAEDSATYYCTRDRGLRFYFDYWGQGTTLTVSS
VL: QTVLSQSPAILSASPGEKVTMTCRASSSVTYIHWYQQKPGSSPKSWIYATSNLASGVPARFSGSGSGTSYSLTISRVEAEDAATYYCQHWSSKPPTFGGGTKLEIK
notes: also called parental CEA-A
Work on B1 yielded a Kd [1] of 0.7 to 2 nM.

B2: XENP44332 (bispecific antibody)
heavy: EVKLVESGGGLVQPGGSLRLSCATSGFTFTDYYMNWVRQPPGKALEWLGFIGNKANGYTTEYSASVKGRFTISRDKSQSILYLQMNTLRAEDSATYYCTRDRGLRFYFDYWGQGTTLTVSSASTKGPSVFPLAPSSKSTSGGTAALGCLVKDYFPEPVTVSWNSGALTSGVHTFPAVLQSSGLYSLSSVVTVPSSSLGTQTYICNVNHKPSDTKVDKKVEPKSCDKTHTCPPCPAPPVAGPSVFLFPPKPKDTLMISRTPEVTCVVVDVKHEDPEVKFNWYVDGVEVHNAKTKPREEEYNSTYRVVSVLTVLHQDWLNGKEYKCKVSNKALPAPIEKTISKAKGQPREPQVYTLPPSREEMTKNQVSLTCDVSGFYPSDIAVEWESDGQPENNYKTTPPVLDSDGSFFLYSKLTVDKSRWEQGDVFSCSVMHEALHNHYTQKSLSLSPGK
scFv-Fc: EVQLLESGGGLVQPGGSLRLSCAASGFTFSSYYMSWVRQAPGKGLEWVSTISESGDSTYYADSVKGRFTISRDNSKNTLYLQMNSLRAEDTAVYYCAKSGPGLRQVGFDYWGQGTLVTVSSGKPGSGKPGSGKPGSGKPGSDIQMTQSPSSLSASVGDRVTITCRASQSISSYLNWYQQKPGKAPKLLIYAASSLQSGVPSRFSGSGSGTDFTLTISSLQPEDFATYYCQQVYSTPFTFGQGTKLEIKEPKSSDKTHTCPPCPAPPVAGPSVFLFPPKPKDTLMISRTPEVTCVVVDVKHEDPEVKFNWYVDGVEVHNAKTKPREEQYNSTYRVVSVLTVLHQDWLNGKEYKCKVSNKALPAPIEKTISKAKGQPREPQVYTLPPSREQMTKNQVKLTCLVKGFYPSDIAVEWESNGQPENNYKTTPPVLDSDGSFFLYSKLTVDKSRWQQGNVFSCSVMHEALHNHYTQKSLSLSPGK
light: QTVLSQSPAILSASPGEKVTMTCRASSSVTYIHWYQQKPGSSPKSWIYATSNLASGVPARFSGSGSGTSYSLTISRVEAEDAATYYCQHWSSKPPTFGGGTKLEIKRTVAAPSVFIFPPSDEQLKSGTASVVCLLNNFYPREAKVQWKVDNALQSGNSQESVTEQDSKDSTYSLSSTLTLSKADYEKHKVYACEVTHQGLSSPVTKSFNRGEC
B2 was tested, and the Kd [2] was 37 nM.

B3: XENP44338 (bispecific antibody)
heavy: B2 heavy
scFv-Fc: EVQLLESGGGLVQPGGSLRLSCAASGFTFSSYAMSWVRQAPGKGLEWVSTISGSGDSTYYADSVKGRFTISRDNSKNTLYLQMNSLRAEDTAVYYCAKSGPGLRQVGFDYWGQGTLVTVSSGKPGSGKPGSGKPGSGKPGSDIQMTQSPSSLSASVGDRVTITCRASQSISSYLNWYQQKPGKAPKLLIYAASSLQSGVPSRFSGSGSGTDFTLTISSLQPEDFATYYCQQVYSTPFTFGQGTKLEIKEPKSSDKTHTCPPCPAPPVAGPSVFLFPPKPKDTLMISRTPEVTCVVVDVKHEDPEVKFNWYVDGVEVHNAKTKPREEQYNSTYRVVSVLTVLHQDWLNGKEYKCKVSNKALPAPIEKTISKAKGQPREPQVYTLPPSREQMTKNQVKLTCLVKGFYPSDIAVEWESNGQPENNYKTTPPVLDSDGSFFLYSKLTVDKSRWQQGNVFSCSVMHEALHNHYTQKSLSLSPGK
light: B2 light
For B3, the Kd [3] was ~0.7 nM.

B4: XENP44560 (bispecific antibody)
heavy: B2 heavy
scFv-Fc: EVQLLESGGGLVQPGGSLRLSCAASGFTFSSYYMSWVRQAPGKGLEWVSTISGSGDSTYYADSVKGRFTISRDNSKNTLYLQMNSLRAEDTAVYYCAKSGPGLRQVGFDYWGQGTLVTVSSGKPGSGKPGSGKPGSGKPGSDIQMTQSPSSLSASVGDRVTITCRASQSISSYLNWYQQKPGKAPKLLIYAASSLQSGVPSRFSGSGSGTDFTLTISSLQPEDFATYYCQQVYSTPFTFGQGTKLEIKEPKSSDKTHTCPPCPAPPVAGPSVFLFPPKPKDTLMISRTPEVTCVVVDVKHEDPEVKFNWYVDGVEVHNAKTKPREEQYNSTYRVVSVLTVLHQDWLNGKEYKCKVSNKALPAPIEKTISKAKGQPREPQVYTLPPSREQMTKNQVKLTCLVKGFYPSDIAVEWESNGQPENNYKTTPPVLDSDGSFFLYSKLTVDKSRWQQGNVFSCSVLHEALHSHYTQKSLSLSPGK
light: B2 light
notes: copies: 1 + 1 + 1
B4 was tested, and the Kd [2] was 96 nM.

B5: XENP46500 (antibody, human IgG1, kappa, V domains shown)
VH: QVQVQESGPGLVKPSQTLSLTCTVSGYSITSDYAWNWIRQPPGKKLEWIGYISNSGSTSYNPSLKSRVTISRDTSKNQFSLKLSSVTAADTAVYYCARERNYDYELYYYAMDYWGQGTLVTVSS
VL: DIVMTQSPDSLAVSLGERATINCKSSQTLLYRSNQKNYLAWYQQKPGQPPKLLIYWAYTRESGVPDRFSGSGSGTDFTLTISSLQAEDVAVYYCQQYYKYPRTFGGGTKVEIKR
notes: also called H1.21 and L1.115; copies: 2 + 2
B5: binds [4].

B6: XENP45835 (antibody, V domains shown)
VH: B5 VH with E105D, L106D
VL: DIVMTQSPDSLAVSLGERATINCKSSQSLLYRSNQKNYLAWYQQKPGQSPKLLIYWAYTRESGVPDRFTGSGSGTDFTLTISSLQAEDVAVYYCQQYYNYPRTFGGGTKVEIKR
notes: also called L1.56; H1 and L1.56; copies: 2 + 2
B6: binds [4].

B7: CEA-A_H1L2 (antibody, V domains shown)
VH: EVQLVESGGGLVQPGGSLRLSCATSGFTFTDYYMNWVRQAPGKALEWVGFIGNKANGYTTEYSASVKGRFTISRDKSKSSLYLQMNSLKTEDTAVYYCTRDRGLRFYFDYWGQGTLVTVSS
VL: EIVLTQSPATLSLSPGERATLSCRASSSVTYIHWYQQKPGQAPRLLIYATSNLASGIPARFSGSGSGTDFTLTISSLEPEDFAVYYCQHWSSKPPTFGGGTKVEIK
notes: also called HIL2
In the case of B7, the Kd [1] is reported as 57 to 69 nM.

B8: XENP44746 (bispecific antibody)
chain 1: B7 VH
chain 2: B7 VL
chain 3: not shown
For B8, the Kd [3] was 57 nM.

B9: XENP44745 (bispecific antibody)
chain 1: B7 VH
chain 2: B7 VL with E1Q, I2T, A42S, L45S, I57V, F70Y
chain 3: not shown
B9 showed a Kd [3] of 5 nM.

B10: CEA-A_H1L1 (antibody, V domains shown)
VH: B7 VH
VL: B7 VL with E1Q, I2T, A42S, L45S, I57V, F70Y
notes: also called humanized H1L1
B10 gave a Kd [1] of 5 to 8 nM.

B11: CEA-A_H1.7_L2.15 (antibody, V domains shown)
VH: B7 VH with T24A, A44G, G57A
VL: B7 VL with R44K, L45S
Work on B11 yielded a Kd [5] of 3330 nM and a Kd [6] of 13 nM.

B12: 1A7_H1.14_L1 (antibody, V domains shown)
VH: EVQLLESGGGLVQPGGSLRLSCAASGFTFSSYYMSWVRQAPGKGLEWVSTISESGDSTYYADSVKGRFTISRDNSKNTLYLQMNSLRAEDTAVYYCAKSGPGLRQVGFDYWGQGTLVTVSS
VL: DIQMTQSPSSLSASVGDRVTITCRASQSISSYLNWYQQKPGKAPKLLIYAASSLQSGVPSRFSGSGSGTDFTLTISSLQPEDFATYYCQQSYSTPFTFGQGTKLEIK
notes: Anti-CD28 VH/VL pair; also called 1A7[CD28]_H1.14_L1
B12 showed a Kd [7] of ~200 nM.

B13: XENP45915 (bispecific antibody)
heavy: EVQLVESGGGLVQPGGSLRLSCAASGFTFTDYYMNWVRQAPGKGLEWVGFIGNKANAYTTEYSASVKGRFTISRDKSKSSLYLQMNSLKTEDTAVYYCTRDRGLRFYFDYWGQGTLVTVSSASTKGPSVFPLAPSSKSTSGGTAALGCLVKDYFPEPVTVSWNSGALTSGVHTFPAVLQSSGLYSLSSVVTVPSSSLGTQTYICNVNHKPSDTKVDKKVEPKSCDKTHTCPPCPAPPVAGPSVFLFPPKPKDTLMISRTPEVTCVVVDVKHEDPEVKFNWYVDGVEVHNAKTKPREEEYNSTYRVVSVLTVLHQDWLNGKEYKCKVSNKALPAPIEKTISKAKGQPREPQVYTLPPSREEMTKNQVSLTCDVSGFYPSDIAVEWESDGQPENNYKTTPPVLDSDGSFFLYSKLTVDKSRWEQGDVFSCSVLHEALHSHYTQKSLSLSPGK
scFv-Fc: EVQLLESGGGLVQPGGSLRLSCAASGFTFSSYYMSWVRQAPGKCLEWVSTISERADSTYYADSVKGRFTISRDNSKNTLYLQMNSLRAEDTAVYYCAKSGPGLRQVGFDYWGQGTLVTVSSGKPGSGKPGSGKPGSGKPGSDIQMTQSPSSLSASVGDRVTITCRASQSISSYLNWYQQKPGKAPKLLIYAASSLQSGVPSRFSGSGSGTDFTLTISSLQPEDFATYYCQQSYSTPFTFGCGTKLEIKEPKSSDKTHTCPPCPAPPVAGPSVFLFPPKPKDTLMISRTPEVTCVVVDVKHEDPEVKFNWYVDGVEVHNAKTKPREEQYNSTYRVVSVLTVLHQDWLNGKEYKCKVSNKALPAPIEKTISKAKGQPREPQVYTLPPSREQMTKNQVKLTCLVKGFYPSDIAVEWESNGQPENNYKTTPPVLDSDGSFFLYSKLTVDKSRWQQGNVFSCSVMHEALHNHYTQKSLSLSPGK
light: EIVLTQSPATLSLSPGERATLSCRASSSVTYIHWYQQKPGQAPKSLIYATSNLASGIPARFSGSGSGTDFTLTISSLEPEDFAVYYCQHWSSKPPTFGGGTKVEIKRTVAAPSVFIFPPSDEQLKSGTASVVCLLNNFYPREAKVQWKVDNALQSGNSQESVTEQDSKDSTYSLSSTLTLSKADYEKHKVYACEVTHQGLSSPVTKSFNRGEC
Binder B13 has a Kd [8] of 26 nM.

B14: XENP44915 (bispecific antibody, human IgG1, kappa)
heavy: B13 heavy
scFv-Fc: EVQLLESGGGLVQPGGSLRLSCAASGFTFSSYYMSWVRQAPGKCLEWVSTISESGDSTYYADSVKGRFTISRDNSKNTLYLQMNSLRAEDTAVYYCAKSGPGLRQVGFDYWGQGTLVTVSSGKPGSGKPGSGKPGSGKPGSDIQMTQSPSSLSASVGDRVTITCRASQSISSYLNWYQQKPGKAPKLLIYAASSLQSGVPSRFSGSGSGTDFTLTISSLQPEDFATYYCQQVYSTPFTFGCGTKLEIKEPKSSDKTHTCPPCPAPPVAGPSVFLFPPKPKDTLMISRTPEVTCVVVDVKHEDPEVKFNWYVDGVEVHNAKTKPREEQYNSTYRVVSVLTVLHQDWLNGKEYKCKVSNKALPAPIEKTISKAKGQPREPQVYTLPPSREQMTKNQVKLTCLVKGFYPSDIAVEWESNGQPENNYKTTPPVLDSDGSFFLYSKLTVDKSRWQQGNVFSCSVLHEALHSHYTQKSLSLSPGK
light: B13 light
In the case of B14, the Kd [8] is reported as 130 nM.
